Results: publication PMC8355326

How the values were obtained:
Experiment in all cases: cryo-EM structure
[1] = target: BG505 SOSIP MD39 (HIV (BG505 genotype, clade A))
[2] = target: BG505 SOSIP.v5.2 N241/N289 (HIV (BG505 genotype, clade A))
[3] = target: BG505 SOSIP.v5.2(7S) N241/N289 (HIV (BG505 genotype, clade A))

BG505 SOSIP MD39 (domain or fragment)
stoichiometry N [1]: 3

BG505 SOSIP.v5.2 N241/N289 (domain or fragment)
stoichiometry N [2]: 3

BG505 SOSIP.v5.2(7S) N241/N289 (domain or fragment)
stoichiometry N [3]: 3
